Assay results from PMC11218354.

Legend:
nucleolin [1] = biological target: nucleolin (UniProt P19338); assay: SPR; conditions: SPR: 1x PBS, nucleolin on CM5 chip, analyte 0.156-10 uM, regeneration 50 mM NaOH, temperature not stated, ELONA: 1x PBS, 1 mM MgCl2, 0.05% Tween 20, 1 uM …
nucleolin [2] = biological target: nucleolin (UniProt P19338); assay: ELONA; conditions: 1 mM Mg2+; U6 = 5-fluorouridine (5FU replaces T6; printed F); ELONA: 1x PBS, 1 mM MgCl2, 0.05% Tween 20, 1 uM biotin

Chain of nucleolin (P19338 2-710): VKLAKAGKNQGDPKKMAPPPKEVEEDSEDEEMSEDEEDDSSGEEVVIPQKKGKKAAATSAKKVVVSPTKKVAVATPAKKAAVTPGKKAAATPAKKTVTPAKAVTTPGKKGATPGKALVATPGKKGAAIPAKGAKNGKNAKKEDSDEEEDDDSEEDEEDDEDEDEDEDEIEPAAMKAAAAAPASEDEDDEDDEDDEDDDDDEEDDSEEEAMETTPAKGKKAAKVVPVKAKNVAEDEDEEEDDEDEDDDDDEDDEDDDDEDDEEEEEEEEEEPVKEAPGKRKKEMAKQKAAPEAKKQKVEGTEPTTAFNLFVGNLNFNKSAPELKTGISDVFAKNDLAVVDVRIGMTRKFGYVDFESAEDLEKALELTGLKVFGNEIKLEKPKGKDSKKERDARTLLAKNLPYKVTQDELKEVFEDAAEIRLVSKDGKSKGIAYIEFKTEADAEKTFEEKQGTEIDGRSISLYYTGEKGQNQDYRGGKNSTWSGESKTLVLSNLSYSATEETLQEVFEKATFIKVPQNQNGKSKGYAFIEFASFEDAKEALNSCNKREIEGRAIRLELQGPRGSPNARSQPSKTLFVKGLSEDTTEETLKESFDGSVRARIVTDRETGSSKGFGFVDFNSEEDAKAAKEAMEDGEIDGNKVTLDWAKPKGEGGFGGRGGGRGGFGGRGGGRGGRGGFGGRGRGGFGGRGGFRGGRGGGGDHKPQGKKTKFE

GGTGGUGGTGGTTGTGGTGGTGGTGG [FA (sequence 2, 5FU at site 6 of AS1411)]
Kd (nucleolin [1]; U6 = 5-fluorouridine (5FU replaces T6; printed F)): 24.8 nM

GGTGGUGGTGGTTGTGGTGGTGGTGG [FASP (FA-paclitaxel, thioether linker)]
Kd (nucleolin [1]; U6 = 5-fluorouridine (5FU replaces T6), 3'-amino DNA conjugated to paclitaxel through thioether linker): 61.7 nM

GGTGGTGGTGGTTGTGGTGGTGGTGG [ASP (AS1411-paclitaxel, thioether linker)]
Kd (nucleolin [1]; 3'-amino DNA conjugated to paclitaxel through thioether linker): 253 nM

GGTGGTGGTGGTTGTGGTGGTGGTGG [AS1411]
Kd (nucleolin [1]): 69.1 nM

GGTGGUGGTGGTTGTGGTGGTGGTGG [FA, biotinylated (sequence 2)]
binding signal (nucleolin [2]): > 100 % of AS1411
